For experiment [1], the target named is T1, CD38 on the surface of Daudi cells (human, UniProt P28907 1-300).
T1 construct: whole, on cells
As to the kind of experiment: flow cytometry, Daudi cells.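 Also: purified antibodies incubated with Daudi cells for 1 h at 4 °C, bound antibody detected by fluorescent secondary antibody and read by flow cytometry as MFI.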
Experimental: (§1) Harvested cells were centrifuged at 2000 rpm for 5 min and resuspended with 10-15 ml ice-cold culture medium. Cells were counted and then 3×10⁶ cells were resuspended per mL of blocking buffer (PBS plus 2% FBS). 100 μl of the cell suspension was dispensed into each well of a 96-well plate and incubated at room temperature for 10-20 min. […] While incubating, purified antibodies were diluted to the desired dilution with blocking buffer. After a 10-20 minutes incubation, cells were centrifuged for 5 min at 2000 rmp in a refrigerated centrifuge. Blocking buffer was aspirated, and cells were resuspended in 100 μl/well diluted antibodies and incubated for 1 hour at 4° C. The cells were then washed 3 times with PBS plus 2% FBS. After the final wash, the cells were resuspended in 100 μl 1:500 diluted secondary antibody (Invitrogen, Cat #: A10631) and incubated for 1 hour at 4° C. in the dark. The cells were then washed 3 times with 200 μl PBS by centrifuging at 2000 rpm for 5 min. After the last wash, the cells were resuspended in 300 μl cold PBS and analyzed on a FACSVerse™ (BD Biosciences) flow cytometer.

For experiment [2], the target named is T2, cynomolgus CD38 ECD (cynomolgus, UniProt Q5VAN0 44-301, biotinylated on the AviTag during preparation).
T2 construct: also called Cyno-CD38; Avi-Cyno CD38 ECD
The experiment can be described thus: ELISA: plate coated with 1 ug/ml recombinant cynomolgus CD38 ECD, serially diluted antibody, OD450. (ELISA stands for enzyme-linked immunosorbent assay.)
Experimental: (§2) The plate was coated overnight at 4° C. with 1 μg/ml recombinant CD38 or ICAM1. After washing 3 times, the plate was blocked with 300 μl 1% BSA in PBST at 37° C. for 1 hour. Serially diluted antibodies were added and incubated at 37° C. for 1 hour. The plate was then washed 4 times with PBST and incubated with 1:5000 diluted 2nd antibody (Sigma, Cat #A0293) at 37° C. for 1 hour.

Experiment [3] has as its target T3, recombinant human CD38 (human, UniProt P28907 43-300, limits assumed). The experiment can be described thus: ELISA: plate coated with 1 ug/ml recombinant human CD38 ECD, serially diluted antibody, OD450.
Experimental: as §2
Experiment [4] addresses T3, recombinant human CD38. As to the kind of experiment: SPR (Biacore 8K), antibody captured, antigen injected.
Experimental: (§3) The binding kinetics of the anti-CD38 and anti-ICAM1 antibodies were evaluated on a Biacore 8K instrument (GE Healthcare). Biacore Series S CM5 sensor chips were immobilized with monoclonal mouse anti-human IgG (Fc) antibody (human antibody capture kit from GE Healthcare). Antibodies were captured on each flow cell. Serial 3-fold dilutions of each antigen were injected at a flow rate of 30 μl/min. Each sample was analyzed with 1 min association and 10 min dissociation at room temperature (25° C.). After each injection, the chip was regenerated using 3M MgCl₂. A 1:1 Langmuir model of simultaneous fitting of kₒₙ and koff was used for kinetics analysis.
The target in experiment [5] is T2, cynomolgus CD38 ECD. The experiment is described as above.
Experimental: as §3
The target of experiment [6] is T4, recombinant human ICAM1 (human, UniProt P05362 28-480, limits assumed). The experiment is described as above.
Experimental: as §3
For experiment [7], the target named is T5, Rhesus-ICAM1 (rhesus, UniProt Q5NKV6 28-480, limits assumed).
T5 sequence (looked up): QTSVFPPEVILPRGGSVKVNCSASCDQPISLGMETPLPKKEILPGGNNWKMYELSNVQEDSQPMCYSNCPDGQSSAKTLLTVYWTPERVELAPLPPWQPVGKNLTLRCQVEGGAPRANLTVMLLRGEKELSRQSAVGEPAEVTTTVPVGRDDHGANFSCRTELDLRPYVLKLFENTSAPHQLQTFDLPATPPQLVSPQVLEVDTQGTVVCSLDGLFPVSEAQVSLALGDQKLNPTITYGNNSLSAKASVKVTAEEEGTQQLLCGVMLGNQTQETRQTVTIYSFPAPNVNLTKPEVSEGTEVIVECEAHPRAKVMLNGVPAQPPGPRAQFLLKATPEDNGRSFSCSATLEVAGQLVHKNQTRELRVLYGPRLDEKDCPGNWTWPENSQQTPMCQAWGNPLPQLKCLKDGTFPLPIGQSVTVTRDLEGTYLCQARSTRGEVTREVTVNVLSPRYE
The experiment is described as above.
Experimental: as §3

For experiment [8], the target named is T4, recombinant human ICAM1. As to the kind of experiment: ELISA: plate coated with 1 ug/ml recombinant human ICAM1 ECD, serially diluted antibody, OD450.
Experimental: as §2
The target of experiment [9] is T5, Rhesus-ICAM1. As to the kind of experiment: ELISA: plate coated with 1 ug/ml recombinant rhesus ICAM1 ECD, serially diluted antibody, OD450.
Experimental: as §2
The target in experiment [10] is T6, ICAM1 on the surface of DU145 cells (human, UniProt P05362 28-532).
T6 construct: whole, on cells
As to the kind of experiment: flow cytometry, DU145 cells.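 Also: purified antibodies in dilution series bound to cells for 1 h at 4 °C, detected with a fluorescent secondary antibody (1 h, 4 °C, dark), read by flow cytometry.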 For orientation: A flow cytometer gives signals particle by particle.
Experimental: as §1

The target in experiment [11] is T4, recombinant human ICAM1. The experiment can be described thus: SPR (Biacore T200), antigen immobilised, antibody injected. On the technique in general: Surface plasmon resonance follows binding to a sensor surface in real time, without labels.
Experimental: The binding kinetics of the bispecific anti-CD38/anti-ICAM1 antibodies were evaluated using Biacore T200 (GE Healthcare). The recombinant CD38 or ICAM1 were immobilized at low density on Biacore Series S CM5 sensor chips using the amine coupling kit (GE Healthcare). Serial 3-fold dilutions of each antibody were injected at a flow rate of 30 ul/min. Each sample was analyzed with 3m association and 15 min dissociation at room temperature (25° C.). After each injection, the chip was regenerated using 10 mM Glycine pH1.5. A 1:1 Langmuir model of simultaneous fitting of kₒₙ and koff was used for kinetics analysis.

T4 sequence (P05362 28-480 limits assumed): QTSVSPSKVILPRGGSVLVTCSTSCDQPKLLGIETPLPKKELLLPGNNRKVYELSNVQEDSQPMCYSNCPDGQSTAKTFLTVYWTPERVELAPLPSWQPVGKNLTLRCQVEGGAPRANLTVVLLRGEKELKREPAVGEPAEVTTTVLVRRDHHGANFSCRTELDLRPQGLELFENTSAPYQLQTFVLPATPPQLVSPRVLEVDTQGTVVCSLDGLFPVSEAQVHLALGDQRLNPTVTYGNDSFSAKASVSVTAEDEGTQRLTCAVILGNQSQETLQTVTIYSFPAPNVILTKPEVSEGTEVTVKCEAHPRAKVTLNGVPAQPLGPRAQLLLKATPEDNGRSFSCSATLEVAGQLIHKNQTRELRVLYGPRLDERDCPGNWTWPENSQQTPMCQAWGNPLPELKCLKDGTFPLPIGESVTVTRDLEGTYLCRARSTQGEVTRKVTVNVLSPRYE
T6 sequence (P05362 28-532): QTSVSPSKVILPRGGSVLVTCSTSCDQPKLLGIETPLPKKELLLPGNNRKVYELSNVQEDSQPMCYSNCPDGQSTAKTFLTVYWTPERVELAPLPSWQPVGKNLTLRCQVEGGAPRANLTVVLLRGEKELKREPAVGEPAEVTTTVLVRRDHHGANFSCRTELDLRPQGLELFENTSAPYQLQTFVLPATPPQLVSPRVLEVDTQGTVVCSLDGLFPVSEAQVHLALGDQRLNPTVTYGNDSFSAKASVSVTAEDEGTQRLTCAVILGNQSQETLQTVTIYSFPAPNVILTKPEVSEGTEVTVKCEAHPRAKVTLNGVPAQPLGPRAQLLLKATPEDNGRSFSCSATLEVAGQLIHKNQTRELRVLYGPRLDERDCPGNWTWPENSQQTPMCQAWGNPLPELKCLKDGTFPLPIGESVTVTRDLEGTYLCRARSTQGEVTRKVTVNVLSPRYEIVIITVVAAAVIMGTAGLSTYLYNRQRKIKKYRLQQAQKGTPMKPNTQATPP

B1: 17F7 (antibody, human IgG1, kappa, V domains shown)
VH: QSVEESGGRLVTPGTPLTLTCTASGFSLSSYYMSWVRQAPGKGLEWIGFISKTAITYYASWARGRFTISKTSTAVDLKITSPTTEDTATYFCARVDAYSAGDLWGPGTLVTVSS
VL: AQVLTQTPSSVSAAVGGTVTINCQASQSVYSDNRLSWFQQKSGQPPKLLIYSTSSLASGVPSRFSGSGSGTQFTLTISGVQSDDAASYYCQGEFICTSADCFVFGGGTEVVVKR
notes: Rabbit-human chimeric anti-CD38: rabbit VH and VL on human IgG1 and kappa constant regions
By EC50 is commonly meant the midpoint of the concentration-response curve. Low values mean a more potent agent, high ones a less potent agent. Broadly, the EC50 (read off the curve) is the concentration that produces a half-maximal response. The term Kd denotes a measure of binding affinity in units of concentration. The term koff denotes the first-order rate constant of dissociation. What is called kon is the rate constant with which the complex forms. For the molecule B1, in [1], the EC50 is 432 pM and the “Max Binding MFI” value stood at 1530 MFI. The concentration for a half-maximal effect (EC50 (read off the curve)) in experiment [2] was about 60 pM. For the same molecule, the “EC50 (read off the curve)” value in experiment [3] is about 60 pM. Further, in [4], the equilibrium dissociation constant (Kd) came out at 7560 pM, the off-rate constant (koff) amounted to 0.00378 s⁻¹ and the association rate constant (kon) was 500000 M⁻¹ s⁻¹. In experiment [5], the Kd was 2320 pM, the off-rate constant (koff) was 0.00382 s⁻¹ and the kon came to 1.65e+06 M⁻¹ s⁻¹.

B2: 17E9 (antibody, human IgG1, kappa, V domains shown)
VH: QSVEESGGRLVTPGTPLTLTCTASGFSLSRYYVTWVRQAPGKGLEWIGIIYISGTTYYATWAKGRFTISKSATTVDLRIASPTTEDTATYFCAAAWPVGTYVLPLWGPGTLVTVSS
VL: AAVLTQTPSPVSAAVGGTVTIKCQSSQSVVNANNLSWYQQKPGQPPKLLIYLASTLASGVPSRFSGSGSGTQFTLTISSVQSDDAATYYCLGVYDDDGDNAFGGGTEVVVKR
notes: as for B1
As for B2, in experiment [1], a half-maximal response (EC50) required 263 pM and the “Max Binding MFI” value turned out to be 2260 MFI. Besides, in [2], the 50% effective concentration (EC50 (read off the curve)) was about 60 pM. For the same molecule, the concentration for a half-maximal effect (EC50 (read off the curve)) in experiment [3] is about 60 pM. Besides, in experiment [4], the equilibrium dissociation constant (Kd) is 150 pM, the koff was 0.000142 s⁻¹ and the kon came to 923000 M⁻¹ s⁻¹. In experiment [5], this molecule returned a Kd of 60 pM, a koff of 0.000166 s⁻¹ and a kon of 2.64e+06 M⁻¹ s⁻¹.

B3: Anti-ICAM1 G12 (antibody, human IgG1, lambda, V domains shown)
VH: QVQLQESGGGLVQPGGSLRLSCAASGFTFSSYAMSWVRQAPGKGLEWVSAISGSGGSTYYADSVKGRFTISRDNSKNTLYLQMSSLRAEDTAFYYCANSAYTGGWYDYWGHGTLVTVSS
VL: ASELTQDPAVSVALGQTVKITCQGDSLRTYYASWYQQRPGQAPVLVIYGENSRPSGIPDRFSGSSSGNTASLTITGAQAEDEADYYCNSRDSSGNHLRVFGGGTKLTVLG
notes: Human IgG1 with a lambda light chain; also called anti-ICAM1 clone G12
B3: in [6], the dissociation constant Kd is 12200 pM, the koff came out at 0.00331 s⁻¹ and the kon is 272000 M⁻¹ s⁻¹. In experiment [7], the dissociation constant Kd came out at 17700 pM, the koff was 0.0224 s⁻¹ and the kon worked out at 1.27e+06 M⁻¹ s⁻¹. In addition, the half-maximal effective concentration (EC50 (read off the curve)) in experiment [8] is about 40 pM. The 50% effective concentration (EC50 (read off the curve)) in [9] was about 40 pM. Also, in [10], the EC50 came to 260 pM and the “Max Binding MFI” value is 5010 MFI. Further, in [11], the equilibrium dissociation constant (Kd) was determined as 3200 pM, the koff was 0.000763 s⁻¹ and the kon is 242000 M⁻¹ s⁻¹.

B4: 27F6 (antibody, human IgG1, kappa, V domains shown)
VH: QSLEESGGGLVKPGASLTLTCKASGFSFSSGCDMCWVRQAPGKGLEWISCIYTGSGSTYYANWAKGRFTISRTSSTTVTLQMTSLTAADTATYFCAGDSDYLGLWGPGTLVTVSS
VL: DIVMTQTPSSVEAAVGGTVTIKCQASQNIGNYLAWYQQKPGQPPKVLIYRASTLASGVPSRFKGSGSGTHFTLTISDLESADAATYYCQSYYYTTDDNYRSWAFGGGTEVVVKR
notes: as for B1
As to B4, in experiment [1], the EC50 is 298 pM and the “Max Binding MFI” value was 1200 MFI. The 50% effective concentration (EC50 (read off the curve)) in [2] was about 60 pM. Besides, in experiment [3], the “EC50 (read off the curve)” value was about 60 pM. In experiment [4], the Kd came to 310 pM, the off-rate constant (koff) was 0.000117 s⁻¹ and the association rate constant (kon) stood at 376000 M⁻¹ s⁻¹. In [5], this molecule gave a Kd of 280 pM, an off-rate constant (koff) of 0.00029 s⁻¹ and a kon of 1.02e+06 M⁻¹ s⁻¹.

B5: 18E4 (antibody, human IgG1, kappa, V domains shown)
VH: QSLEESGGDLVKPGASLTLTCTASGFSFNNYWICWIRQAPGKGLEWVACIYSPSGDIKYYANWAKGRFTVSKTSSTTVTLQMTSLTGADTATYFCARELSGSSYEGYFESWGPGTLVTVSS
VL: AQVLTQTPSSVSAAVGGTVTINCQCSQSVYGHNWLAWYQHKPGQPPKLLMYRASNLASGVPSRFKGSGSGSQFTLTIGEVQSDDAATYYCQGYYNGGSYAFGGGTEVVVRR
notes: as for B1
In the case of B5, in experiment [1], it took 900 pM to reach a half-maximal effect (EC50) and the “Max Binding MFI” value was determined as 1580 MFI. In addition, the concentration for a half-maximal effect (EC50 (read off the curve)) in experiment [2] was about 60 pM. Also, the 50% effective concentration (EC50 (read off the curve)) in experiment [3] was about 60 pM. Moreover, in experiment [4], the dissociation constant Kd came to 270 pM, the koff came out at 8.13e-05 s⁻¹ and the association rate constant (kon) stood at 303000 M⁻¹ s⁻¹. Further, in [5], the Kd worked out at 420 pM, the koff is 0.000236 s⁻¹ and the kon was 563000 M⁻¹ s⁻¹.

Source of the values: patent publication US20220002432A1 (VIRTUOSO BINCO, published 2022).
